Source: patent US20100310640A1

T1: HLA-DR DRB4*0101 (human)
T1 chain 1: not shown
T1 chain 2: not shown

T2: HLA-DR DRB1*0301 (human)
T2 chain 1: not shown
T2 chain 2: not shown

T3: HLA-DR DRB1*0901 (human)
T3 chain 1: not shown
T3 chain 2: not shown

T4: HLA-DR DRB1*0802 (human)
T4 chain 1: not shown
T4 chain 2: not shown

T5: HLA-DR DRB5*0101 (human)
T5 chain 1: not shown
T5 chain 2: not shown

T6: HLA-DR DRB1*1302 (human)
T6 chain 1: not shown
T6 chain 2: not shown

T7: HLA-DR DRB1*0404 (human)
T7 chain 1: not shown
T7 chain 2: not shown

T8: HLA-DR DRB1*0405 (human)
T8 chain 1: not shown
T8 chain 2: not shown

T9: HLA-DR DRB1*0401 (human)
T9 chain 1: not shown
T9 chain 2: not shown

T10: HLA-DR DRB1*1101 (human)
T10 chain 1: not shown
T10 chain 2: not shown

T11: HLA-DR DRB1*1201 (human)
T11 chain 1: not shown
T11 chain 2: not shown

T12: HLA-DR DRB1*0101 (human)
T12 chain 1: not shown
T12 chain 2: not shown

T13: HLA-DR DRB1*0701 (human)
T13 chain 1: not shown
T13 chain 2: not shown


Target: T1, HLA-DR DRB4*0101 (human)
Experiment: radioligand inhibition, purified HLA-DR
Settings: remark: other sources report otherwise

| IC50 [nM] | Binder |
| --- | --- |
| 351 | RPRFRELVSEFSRMA [Peptide 9019.0095] |
| 18 | HNQVRQVPLQRLRIV [Her/neu.88] |
| 2510 | APTIRGDPECHLFYN [Peptide 9019.0022] |
| 4030 | EALLESSLRQAQQNM [Cyclin D1.252] |

The next lines start with the binder.

| Binder | IC50 [nM] |
| --- | --- |
| PPSMVAAGSVVAAVQ [Cyclin D1.109] | 91 |
| KLCIYTDNSIRPEEL [Cyclin D1.123] | 33 |
| TAKLTIESTPFNVAE [CEA.33 peptide 9019.0106] | 53 |

Target: T2, HLA-DR DRB1*0301 (human)
Experiment: radioligand inhibition, purified HLA-DR
Settings: remark: other sources report otherwise

| IC50 [nM] | Binder |
| --- | --- |
| 6220 | RPRFRELVSEFSRMA [Peptide 9019.0095] |
| 31 | APTIRGDPECHLFYN [Peptide 9019.0022] |
| 151 | EALLESSLRQAQQNM [Cyclin D1.252] |
| 18 | LQRYSEDPTVPLPSE [Peptide 9019.0099] |
| 8620 | ELAVFREKVTEQHRQ [Peptide 9019.0018] |

The next lines start with the binder.

| Binder | IC50 [nM] |
| --- | --- |
| KLCIYTDNSIRPEEL [Cyclin D1.123] | 64 |
| RWCIPWQRLLLTASL [CEA.10 peptide 9019.0104] | 7860 |

Target: T3, HLA-DR DRB1*0901 (human)
Experiment: radioligand inhibition, purified HLA-DR
Settings: remark: other sources report otherwise

| IC50 [nM] | Binder |
| --- | --- |
| 2320 | RPRFRELVSEFSRMA [Peptide 9019.0095] |
| 6940 | HNQVRQVPLQRLRIV [Her/neu.88] |

Target: T4, HLA-DR DRB1*0802 (human)
Experiment: radioligand inhibition, purified HLA-DR
Settings: remark: other sources report otherwise

| IC50 [nM] | Binder |
| --- | --- |
| 376 | RPRFRELVSEFSRMA [Peptide 9019.0095] |
| 9 | HNQVRQVPLQRLRIV [Her/neu.88] |
| 260 | LKSGMKELAVFREKV [Peptide 9019.0185] |

The remaining lines, values behind:

| Binder | IC50 [nM] |
| --- | --- |
| PPSMVAAGSVVAAVQ [Cyclin D1.109] | 1400 |
| RWCIPWQRLLLTASL [CEA.10 peptide 9019.0104] | 263 |

Target: T5, HLA-DR DRB5*0101 (human)
Experiment: radioligand inhibition, purified HLA-DR
Settings: remark: other sources report otherwise

| IC50 [nM] | Binder |
| --- | --- |
| 26 | RPRFRELVSEFSRMA [Peptide 9019.0095] |
| 380 | FRELVSEFSRMARDP [Peptide 9019.0096] |
| 1880 | TEILKGGVLIQRNPQ [Her2/neu.146] |

Second part, the binder before the results:

| Binder | IC50 [nM] |
| --- | --- |
| SITVSASGTSPGLSA [CEA.671 peptide 9919.0143] | 15100 |
| LLTFWNPPTTAKLTI [CEA.24 peptide 9019.0105] | 31 |
| KLCIYTDNSIRPEEL [Cyclin D1.123] | 4620 |

Target: T6, HLA-DR DRB1*1302 (human)
Experiment: radioligand inhibition, purified HLA-DR
Settings: remark: other sources report otherwise

| IC50 [nM] | Binder |
| --- | --- |
| 270 | HNQVRQVPLQRLRIV [Her/neu.88] |
| 1670 | APTIRGDPECHLFYN [Peptide 9019.0022] |
| 4760 | EALLESSLRQAQQNM [Cyclin D1.252] |
| 280 | LQRYSEDPTVPLPSE [Peptide 9019.0099] |
| 343 | TEILKGGVLIQRNPQ [Her2/neu.146] |

The next lines start with the binder.

| Binder | IC50 [nM] |
| --- | --- |
| SITVSASGTSPGLSA [CEA.671 peptide 9919.0143] | 592 |
| PPSMVAAGSVVAAVQ [Cyclin D1.109] | 55 |
| KLCIYTDNSIRPEEL [Cyclin D1.123] | 879 |
| TAKLTIESTPFNVAE [CEA.33 peptide 9019.0106] | 35 |
| RWCIPWQRLLLTASL [CEA.10 peptide 9019.0104] | 2330 |

Target: T7, HLA-DR DRB1*0404 (human)
Experiment: radioligand inhibition, purified HLA-DR
Settings: remark: other sources report otherwise

| IC50 [nM] | Binder |
| --- | --- |
| 62 | RPRFRELVSEFSRMA [Peptide 9019.0095] |
| 78 | HNQVRQVPLQRLRIV [Her/neu.88] |
| 51 | FRELVSEFSRMARDP [Peptide 9019.0096] |
| 1020 | EALLESSLRQAQQNM [Cyclin D1.252] |
| 13100 | LQRYSEDPTVPLPSE [Peptide 9019.0099] |
| 32 | TEILKGGVLIQRNPQ [Her2/neu.146] |

Further lines, the binder ahead of its results:

| Binder | IC50 [nM] |
| --- | --- |
| SITVSASGTSPGLSA [CEA.671 peptide 9919.0143] | 11 |
| LLTFWNPPTTAKLTI [CEA.24 peptide 9019.0105] | 52 |
| TAKLTIESTPFNVAE [CEA.33 peptide 9019.0106] | 41 |

Target: T8, HLA-DR DRB1*0405 (human)
Experiment: radioligand inhibition, purified HLA-DR
Settings: remark: other sources report otherwise

| IC50 [nM] | Binder |
| --- | --- |
| 151 | RPRFRELVSEFSRMA [Peptide 9019.0095] |
| 1300 | HNQVRQVPLQRLRIV [Her/neu.88] |
| 3570 | SITVSASGTSPGLSA [CEA.671 peptide 9919.0143] |
| 34 | LKSGMKELAVFREKV [Peptide 9019.0185] |
| 760 | TEILKGGVLIQRNPQ [Her2/neu.146] |

Target: T9, HLA-DR DRB1*0401 (human)
Experiment: radioligand inhibition, purified HLA-DR
Settings: remark: other sources report otherwise

| IC50 [nM] | Binder |
| --- | --- |
| 38 | RPRFRELVSEFSRMA [Peptide 9019.0095] |
| 840 | HNQVRQVPLQRLRIV [Her/neu.88] |
| 1640 | APTIRGDPECHLFYN [Peptide 9019.0022] |
| 22 | FRELVSEFSRMARDP [Peptide 9019.0096] |
| 605 | EALLESSLRQAQQNM [Cyclin D1.252] |
| 40 | TEILKGGVLIQRNPQ [Her2/neu.146] |

More lines, now with the values behind:

| Binder | IC50 [nM] |
| --- | --- |
| SITVSASGTSPGLSA [CEA.671 peptide 9919.0143] | 75 |
| KLCIYTDNSIRPEEL [Cyclin D1.123] | 90 |

Target: T10, HLA-DR DRB1*1101 (human)
Experiment: radioligand inhibition, purified HLA-DR
Settings: remark: other sources report otherwise

| IC50 [nM] | Binder |
| --- | --- |
| 125 | RPRFRELVSEFSRMA [Peptide 9019.0095] |
| 21 | HNQVRQVPLQRLRIV [Her/neu.88] |
| 381 | FRELVSEFSRMARDP [Peptide 9019.0096] |
| 756 | EALLESSLRQAQQNM [Cyclin D1.252] |
| 94 | LQRYSEDPTVPLPSE [Peptide 9019.0099] |
| 692 | TEILKGGVLIQRNPQ [Her2/neu.146] |

Continued, binder first:

| Binder | IC50 [nM] |
| --- | --- |
| SITVSASGTSPGLSA [CEA.671 peptide 9919.0143] | 3320 |
| LLTFWNPPTTAKLTI [CEA.24 peptide 9019.0105] | 52 |

Target: T11, HLA-DR DRB1*1201 (human)
Experiment: radioligand inhibition, purified HLA-DR
Settings: remark: other sources report otherwise

| IC50 [nM] | Binder |
| --- | --- |
| 42 | HNQVRQVPLQRLRIV [Her/neu.88] |
| 16900 | APTIRGDPECHLFYN [Peptide 9019.0022] |

Second part, the binder before the results:

| Binder | IC50 [nM] |
| --- | --- |
| LLTFWNPPTTAKLTI [CEA.24 peptide 9019.0105] | 3000 |
| TAKLTIESTPFNVAE [CEA.33 peptide 9019.0106] | 2310 |
| RWCIPWQRLLLTASL [CEA.10 peptide 9019.0104] | 1560 |

Target: T12, HLA-DR DRB1*0101 (human)
Experiment: radioligand inhibition, purified HLA-DR
Settings: remark: other sources report otherwise

| IC50 [nM] | Binder |
| --- | --- |
| 26 | RPRFRELVSEFSRMA [Peptide 9019.0095] |
| 4030 | APTIRGDPECHLFYN [Peptide 9019.0022] |
| 8210 | EALLESSLRQAQQNM [Cyclin D1.252] |
| 11 | TEILKGGVLIQRNPQ [Her2/neu.146] |

The remaining lines, values behind:

| Binder | IC50 [nM] |
| --- | --- |
| SITVSASGTSPGLSA [CEA.671 peptide 9919.0143] | 2810 |
| LLTFWNPPTTAKLTI [CEA.24 peptide 9019.0105] | 69 |
| PPSMVAAGSVVAAVQ [Cyclin D1.109] | 6.8 |
| KLCIYTDNSIRPEEL [Cyclin D1.123] | 1920 |

Target: T13, HLA-DR DRB1*0701 (human)
Experiment: radioligand inhibition, purified HLA-DR
Settings: remark: other sources report otherwise

| IC50 [nM] | Binder |
| --- | --- |
| 309 | RPRFRELVSEFSRMA [Peptide 9019.0095] |
| 80 | HNQVRQVPLQRLRIV [Her/neu.88] |
| 16800 | APTIRGDPECHLFYN [Peptide 9019.0022] |
| 5060 | FRELVSEFSRMARDP [Peptide 9019.0096] |
| 2490 | TEILKGGVLIQRNPQ [Her2/neu.146] |

The remaining lines, values behind:

| Binder | IC50 [nM] |
| --- | --- |
| SITVSASGTSPGLSA [CEA.671 peptide 9919.0143] | 1560 |
| LLTFWNPPTTAKLTI [CEA.24 peptide 9019.0105] | 3.7 |
| KLCIYTDNSIRPEEL [Cyclin D1.123] | 1100 |
